Ki, IC50 and Kd data for six molecules are collected here from paper PMC11087509 (2024).

Where no end group is shown, it is not given here. [ ]: non-standard residue; d: D form. Gu = N-terminal tetramethylguanidine; Orn = NCCC[C@H](N)C(=O)O

The target of assay [1] is T1, purified E. coli 70S ribosome (E. coli (endogenous in BW25113), UniProt P60723 1-201; P61175 1-110; P0ADZ0 1-100; P0A7M6 1-63; P0A7J3 1-165). Description: FP; competition with cf-Api88.
For assay [2], the target named is T1, purified E. coli 70S ribosome. Description: FP; competition with cf-Api88. The source holds these as a separate data set.
Assay [3] addresses purified E. coli 30S ribosomal subunit (E. coli (endogenous in MRE600)). The assay can be described thus: FP.
Assay [4] deals with purified E. coli 50S ribosomal subunit (E. coli (endogenous in MRE600), UniProt P60723 1-201; P61175 1-110; P0ADZ0 1-100; P0A7M6 1-63; P0A7J3 1-165). Description: FP.
Assay [5] deals with T1, purified E. coli 70S ribosome. Description: FP.

By Ki is commonly meant a dissociation constant, usually derived from enzyme kinetics or from competition with a known ligand. Read a low Ki as tighter binding. One may read the IC50 as the concentration that inhibits the measured activity by half. A higher IC50 goes with weaker potency in that assay. Gu-[Orn]NNRPVYIPRPRPPHPRL-OH [Api137 (Gu-ONNRPVYIPRPRPPHPRL-OH)]: in assay [1], affinity was put at a Ki of 3.03 µM. The molecule further had a half-inhibitory concentration (IC50) in assay [2] of 15.9 µM.

One may read the Kd as a measure of binding affinity in units of concentration. Low readings indicate a tighter complex, high ones a looser complex. Gu-[Orn](5(6)‑carboxyfluorescein)NNRPVYIPRPRPPHPRL-OH [cf-Api137 (5(6)-carboxyfluorescein-labeled Api137, Gu-ONNRPVYIPRPRPPHPRL-OH)] returned a dissociation constant Kd in assay [3] of 20.2 µM.

Take {5(6)‑carboxyfluorescein}-VDKPPYLPRPRPPR[dR]IYN[dR]-NH2 [cf-Onc112 (5(6)-carboxyfluorescein-labeled Onc112, VDKPPYLPRPRPPRrIYNr-NH2)]: the values for the equilibrium dissociation constant (Kd) in assay [4], in assay [3] and in assay [5] were 0.05 µM, 1.14 µM and 0.06 µM, respectively.

Molecule Gu-[Orn](5(6)‑carboxyfluorescein)NNRPVYIPRPRPPHPRL-NH2 [cf-Api88 (5(6)-carboxyfluorescein-labeled Api88, Gu-ONNRPVYIPRPRPPHPRL-NH2)] showed a Kd in assay [3] of 14.3 µM.

The molecule VDKPPYLPRPRPPR[dR]IYN[dR]-NH2 [Onc112 (VDKPPYLPRPRPPRrIYNr-NH2)] registered an inhibitory constant (Ki) in assay [1] of 1.87 µM. In assay [2], this molecule returned an IC50 of 9.8 µM.

With Gu-[Orn]NNRPVYIPRPRPPHPRL-NH2 [Api88 (Gu-ONNRPVYIPRPRPPHPRL-NH2)], the Ki in assay [1] was 2.45 µM. The 50% inhibitory concentration (IC50) in assay [2] came to 12.8 µM.
